PMC3799227

Tests used:
[1] = tested on: BaeR (Salmonella enterica serovar Typhimurium); experiment: EMSA
[2] = tested on: BaeR-P (phosphorylated BaeR) (Salmonella enterica serovar Typhimurium); experiment: EMSA

sodA promoter fragment A (wild type) gave a binding [1] of 0.9 µM and a binding [2] of 0.6 µM.
